The source of these data is the nanobody polyreactivity screen of Harvey et al. (2022).

The series in a line: yeast display, Sf9 membrane polyspecificity reagent, FACS + sequencing; frameworks hold sequencing errors. In a few lines: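 A synthetic nanobody library was expressed on Saccharomyces cerevisiae BJ5465 by galactose induction for 36–48 hours. The library was stained for 1 hour at 4 °C with 10% biotinylated, detergent-solubilized Sf9 membrane reagent and enriched with streptavidin microbeads before FACS. Low and high (top ~1%) gates were set on anti-HA fluorescence for expression and streptavidin fluorescence for reagent binding, and each polyreactivity label reflects the gate of origin.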
“QVQIVESGGGLVQAGGSLRLSCAASGSTFTRYTMGWYRQAPGKERELVAAISGRGGSTYYADSVKGRFTISRDNAKNTVYLQMNSLKPEDTAVYYCNKVYWRRGSLEYWGQGTQVTVSS”: the “polyreactivity (PSR sort gate)” value is “high polyreactivity”.

Take “QVQIVESGGGLVQAGGSLRLSCAASGSTSWSNAMGWYRQAPRKERELVAAITTGASTYYADSVKGRFTISRDNSKNTVYLQMNSLKLEDTAVYYCAADPWVLWSYYYWGQGTQVTVSS”: the “polyreactivity (PSR sort gate)” value is “low polyreactivity”.

For “QVQIVESGGGLVQAGGSLRLSCAASGSTYDTYAMVWYRQAPGKERELVAGITRRGGRTYYADSVKGRFTISRDNAKNTVYLQMISLKPEDTAVYYCAARTYGYYLYDYWGQGSQVTVSS”, the “polyreactivity (PSR sort gate)” value is given as “high polyreactivity”.

Take “QVQIVESGGGLVQAGGSLRLSCAASGTFSFYAMGWYRQAPGKERELVATIRSGGRTYYADSVKGRFTISRDNAKNTVYLQMNSLKPEDTAVYYCAKTGFLGLRQYGYWGQGTQVTVSS”: the “polyreactivity (PSR sort gate)” value is “high polyreactivity”.

For “QVQIVESGGGLVQAGGSLRLSCAASGTFTYYAMGWYRQAPGKERELVAAITWRGGNTYYADSVKGRFTISRDNAKNTVYLQKNSLKPEDTEVYYCAASLWPDYEYDYWGQGTQVTVSS”, the “polyreactivity (PSR sort gate)” value was “low polyreactivity”.

In the case of “QVQIVESGGGLVQAGGSLRLSCAASGTTFDKYAMGWYRQAPGKERELVAAITTNGGNTYADSVKGRFTISRDNAKNTVYLQMNSLKPEDTAVYYCAADGPGGKGLYYYWGQGTQVTVSS”, the “polyreactivity (PSR sort gate)” value is listed as “high polyreactivity”.

With “QVQIVESGGGLVQAGGSLRLSCAASRIIFSTYAMGWYRQAPGKEREFVAAITSTGSTNYADSVKGRFTISRDNEKNTVYLQMNSLKPEDTAVYYCAARYAGPSPTDTGHDYWGQGTQVTVSS”, the “polyreactivity (PSR sort gate)” value is “low polyreactivity”.

For the sequence “QVQIVESGGGLVQAGGSLRLSCADSGFISSHYAMGWYRQAPGKERELVAAISTNGGSTYYADSVKGRFTISRDNAKNTVYLQMNSLKPEDTSVYYCAAEFAVSFYWSWLGQDYNYWGQGTQVTVSS”, the “polyreactivity (PSR sort gate)” value was “high polyreactivity”.

On to “QVQIVESGGGLVQAGGSLRLSCAPSGSTFWLYAMGWYRHAPGKERELVASISSRGGSTYYADSVTGRFTISRDNAKNTVYLQMNSLKPEDTAVYYCAAKDIRYDDEYWGQGTQVTVSS”, for which the “polyreactivity (PSR sort gate)” value is “low polyreactivity”.

Consider “QVQIVESGGGLVQAGGSLRLSCASSGRIFNTNAMGWYRQAPGKERELVAGITDSGDSTYYADSVKGRFTISRDNAKNTVYLQMNSLKPQDSAVYFCATDPASPYIYYYWGQGTQVTVSS”, for which the “polyreactivity (PSR sort gate)” value is “low polyreactivity”.

On to “QVQIVESGGGLVQAGGSLRLSCASYGFTFWGYTMGWYRQAPGKERELVAAITSNGSTYYADSVKGRFTISRDNAQNTVYLQMNSLKPEDTAVYYCAATRGSSEYFYWGQGSQVTVSS”, for which the “polyreactivity (PSR sort gate)” value is “low polyreactivity”.

For the sequence “QVQIVESGGGLVQAGGSLRLSFAASGRTFGVYAMGWYRQAPGKERELVAAISATGGSTYYADSVKGRFTISRDNSKNTVYLQMNSLKPEDTAVYYCARGGTTLYWGLGTQVTVSS”, the “polyreactivity (PSR sort gate)” value was “high polyreactivity”.

For the sequence “QVQIVESGGGLVQAGGSLRLSGAASGRTFRPYTMGWYRPAPGKERELVARITSGGSTNYADSVKWRFTISRDNAKITVYLQMNSLKPEDTAVYYCNKPGYRLRLDDDYWGQGTQVTVSS”, the “polyreactivity (PSR sort gate)” value is “low polyreactivity”.

For the sequence “QVQIVESGGGLVQAGGSLRLSSAASGNIFVYYAMGGYRQAPGKERELVAALTSDVSTYYADSVKGRFTISRDNAKNTVYLQMNSLKPEDTAVYYCNKVTPGRYYYSVTTGDYWGQGTKVTVSS”, the “polyreactivity (PSR sort gate)” value is on record as “low polyreactivity”.

As to “QVQIVESGGGLVQAGGSLRLSSPASGRTLPSYAMGWYRQAPGKERELVAAITRSGGRTYYADSVKGRFTISRDNAKYTVYLQMNSLKPEDTAVYDCAARQDDYGKIYYYWGQGSQVTVSS”, the “polyreactivity (PSR sort gate)” value was “high polyreactivity”.

As for “QVQIVESGGGLVQAGGSLRLTCAASGFTFYKKAMGWYIQAPGKERELVAAITSSGGSTYYADSVKGRFTISRDNAKNTVYLQMNSLKPEDTAVYYCAAYPQAYIADYDYWGQGTQVTVSS”, the “polyreactivity (PSR sort gate)” value is “low polyreactivity”.

As for “QVQIVESGGGLVQAGGSLRLTCAASGSIFDVYTMGWYRQAPGKERELVAAISYSGGRTNYADSVKGRFTISRDNAKNTVYLQIYSLKPEDTAVYYCATTDGRTAWGVKDYYAKYNYWGQGTQVTVSS”, the “polyreactivity (PSR sort gate)” value is “low polyreactivity”.

Take “QVQIVESGGGLVQAGGTLRLSCAASGFIFSSYGMGWYRKAPGKERELVADISGGGSTNYADSVKGRFTISRDNAKNSVYLQMNSLKPEETAVYYCNAQLIRSAAYDYWGQGTQVSVSS”: the “polyreactivity (PSR sort gate)” value is on record as “low polyreactivity”.

On to “QVQIVESGGGLVQAGRSLRLSCAASGSTFGSYAMGWYRQAPGKDRELVAAISASGGSTYYADSVKGRFTISRDNAKHTVYLQMNSLKPEDTAVYYCATVYYSARYTYWGQGTQVTVSS”, for which the “polyreactivity (PSR sort gate)” value is listed as “high polyreactivity”.

Regarding “QVQIVESGGGLVQAGVSLRLSCAASGLTIGVYAMGWYRQAPGKERELVAAISWSGGTTYYADSVKGRFTISRDNAKINFYLQMNSLKPEDTAVYYCAADYYTDVDYWGQGNQVTVSS”, the “polyreactivity (PSR sort gate)” value was “low polyreactivity”.

As to “QVQIVESGGGLVQARGSIRFRCAASGRIIGTNTMGWYRQAPGKERELVAAITWSGGSTYYADSVKGRFTISRDKEKTTVYLQMYSLKPEDTAVYYCNVESEYAYHWPVDYWGQGTQVSVSS”, the “polyreactivity (PSR sort gate)” value was “low polyreactivity”.

In the case of “QVQIVESGGGLVQAVGSLRLSCAASGFTFTYNAMGWYRQAPGKERELVAAISSGGRTYYADSVKGRFTISRDNAKNTVYLQMNSLKPEDTAVYYCNADPDQYTLRSITNDEDYWGQGTQVTVSS”, the “polyreactivity (PSR sort gate)” value is reported as “low polyreactivity”.

In the case of “QVQIVESGGGLVQPGGSLRLSCAASGRIFGRNAMGWYRQAPGKEWELVAAITTSASRTYYADSVKGRFTISRDNAKNTVYLQMNSLKPEDTAVYYCAARPSWYWYKGDYWGQGTQVTVSS”, the “polyreactivity (PSR sort gate)” value is “high polyreactivity”.

Consider “QVQIVESGGLLVQAGGSLRLSCAASGFIFNPNAMGWYRQAPGKERELVAAIRWSGGSTYYADSVQGRFTISRDNEKNTVYLQMNSLKPDDTAVYYCAANPRTTRYGRGYWGQGTQVSVSS”, for which the “polyreactivity (PSR sort gate)” value is recorded as “high polyreactivity”.

With “QVQIVESGGRLVQAGGSLRLSCAASGSIFVWYAMGWYRQAPGKERELVSRITSGGRTNYADSVKGRFTISRDNAKNTVYLQMNSLKPEDTAVYYCAAGRVSWSPYYYWGQATQVTVSS”, the “polyreactivity (PSR sort gate)” value was “high polyreactivity”.

“QVQIVESGRGLVQAGGSLRLTCAASGINFHFNDMGWYRQAPRKQRELVAAIDSTGSTNYADSVKGRFTISRDNAKNTVYLQMNSLKPEDTAVYYCAVLNHRVDSVLTRYYYWGQGTQVTVSS”: the “polyreactivity (PSR sort gate)” value is recorded as “low polyreactivity”.

On to “QVQIVESRGGLVQAGGSLRLSCAASGSTIPYYAMGRYRQAPGKERELVARIRWNGDSTYYADSVKGRFTISRDIAKNTVYLQINSLKPEDTAVYYCARQGYTLYRTRNRYDYWGKGTQVTVSS”, for which the “polyreactivity (PSR sort gate)” value is on record as “high polyreactivity”.

As to “QVQIVESRGGLVQAGGSLRLSCDASGRTILIYAMGWYRQAPRKERELVAAITSGGRTKYADSVKGRFTISRDNGKNTVFLQMNSQKPEDTAVYYCAAESNRLRYYYWGQGSQVTVSS”, the “polyreactivity (PSR sort gate)” value was “high polyreactivity”.

“QVQIVETGGGLVQAGGSLRLSCAASGFIFSNYARGRYRQAPGKERELVAAISWSGGRTYYADSVKGRFTISRDNAKNSVYLQMNSLKPEDTAVYYCATRYGSASGREYEYWGQGTQVTVSS”: the “polyreactivity (PSR sort gate)” value was “high polyreactivity”.

Turning to “QVQIVHSGGGLVQAGGSLRLSCAASGRTIGGNAMGWYRQAPGKEWELVAAISYSDGSTYYADSVKGRFTISRDNAKNTVYLQMNSLKPEDTAVYYCAADRYAILLYAEDYWGQGTQVTVSS”, the “polyreactivity (PSR sort gate)” value is “low polyreactivity”.

For “QVQIVQSGGGLVQAGGSLRLSCAASGSTITYNAMGWYRQAPGKERELVAAITVSDGSTYYADSVKGRFTISRDNAKNTVYLQMNSLKPEDTAVYYCNAYAVYLRYLWYDFWGQGTQVTVSS”, the “polyreactivity (PSR sort gate)” value was “low polyreactivity”.

Consider “QVQLAESGGCLVQAGGSLRLSCAASGIIFYFYAMGWYRPAPGKERELVAAISGTGGRTYYADSVKGRFTISRDNAKNTVSLQMNSLKPDDTAVYYCNADDTPVPSIRFDYWGQGTQVTVSS”, for which the “polyreactivity (PSR sort gate)” value is “low polyreactivity”.

On to “QVQLAESGGGLVQAGGSLRLSCAASGRIFAFYAMGWYRQAPGKERELVAIISSAGRPYYADSVKGRFTISRDNAKYTVYLQMNSLKREDTAVYYCAAGGRARTYYYWGQGTQVTVSS”, for which the “polyreactivity (PSR sort gate)” value is on record as “high polyreactivity”.

Turning to “QVQLAESGGGLVQAGGSLRLSCAASGRIFARNAMGWYRQAPGKERELVAAISWSGGRTYYADSVKGRFTISRDNAKNTVYLQMNSLKPEDTAVYYCAADHYPWWAWEFDYWGQGTQVTVSS”, the “polyreactivity (PSR sort gate)” value is “low polyreactivity”.

For the sequence “QVQLAESGGGLVQAGGSLRLSCAPSGSTFEINAMGWYRQAPGKETELVAAISRGGSTNYADSVKGRFSISRDNAKNTVYLQMNSLKPEDSAVYDCARDPRFRYYRVSYANDQEFEYSGQGTQVTVSS”, the “polyreactivity (PSR sort gate)” value is reported as “high polyreactivity”.

For “QVQLAESGGGLVQAGGSLRLSSAASGRTIGFNGMGWYRQAPGKERELVAAITWNGDSTYADSVKGRFTISRDNAKNTVYLQMNSLKPDDTAVYYCGAEVVAQMNYWGQGTQVTVSS”, the “polyreactivity (PSR sort gate)” value is given as “low polyreactivity”.

Regarding “QVQLEDAGGGLVQAGGSLRLSCAASGRIIGWYTIGRYRQAPGKERELVATSSSSGASTYYADSVKGRFTISRDNAKNSVYFQMNSLKPEDTGVYYCAAQYYPYSFAHRYGYWGQGSQVTVSS”, the “polyreactivity (PSR sort gate)” value was “high polyreactivity”.

Regarding “QVQLEDSGGGLDQAGGSLRLSCAASGITFIRYAMVWYRQAPGKERELVAAIPTSGSSKFYADSVKGRFTISRDNAKNTVYLQMNSLKPEDTAVYYCAAVFRWARLYTFYGSKVDYWGQGTQVTVSS”, the “polyreactivity (PSR sort gate)” value is given as “high polyreactivity”.

As for “QVQLEDSGGGLVQAGGRLRLSCAASGSIFFSYAMGWYRQAPGTERELVAGINWSGGSTYADCVKGRFTISRDNAKNTVYLQMNSQKPEDTAVYYCAAKYYSERSRYHYWGLGTQVTVSS”, the “polyreactivity (PSR sort gate)” value is reported as “low polyreactivity”.

On to “QVQLEDSGGGLVQAGGSLPLSCAASGGTFTDYAMGWYRQAPGKERELVAAISSVGSTNYADSVKGRFTISRDNAKNTVYLQMNSLKPEDTAVYYCAVDYGRAVQVDSITYDFNYWGQGTQVNVSS”, for which the “polyreactivity (PSR sort gate)” value was “low polyreactivity”.

With “QVQLEDSGGGLVQAGGSLRLSCAASGSTFLYYARGWYRQAPGKERELVAAITSGGSTYYADSVKGRFTISRDNAKNTVYLQMNSLKPEDTAVYYCAAASRRGYYYWGQGTQVTVSS”, the “polyreactivity (PSR sort gate)” value is “high polyreactivity”.
